Experiments:
[1] = target: HR1 peptide of the SARS-CoV spike protein (SARS-CoV); test: pooled complexes heated 5 min in 1x Tricine sample buffer, Tricine SDS-PAGE
[2] = target: MHV-A59 spike protein (mouse hepatitis virus strain A59) (UniProt P11224); test: cell-based or functional assay
[3] = target: T1, HR1 peptide of the MHV-A59 spike protein (amino acid residues 953-1048) (mouse hepatitis virus strain A59), P11224; test: pooled complexes heated 5 min in 1x Tricine sample buffer, Tricine SDS-PAGE
[4] = target: T1, HR1 peptide of the MHV-A59 spike …

T1 sequence (P11224 953-1048, tags left off): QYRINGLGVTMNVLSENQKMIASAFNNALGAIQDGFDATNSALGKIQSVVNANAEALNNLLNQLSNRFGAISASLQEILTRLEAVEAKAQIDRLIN

## HR2 peptide of the SARS-CoV spike protein
[1]
  temperature of dissociation of the complex: 70 °C

## HR2 peptide of the MHV-A59 spike protein (amino acid residues 1216-1254)
[2]
  EC50 of inhibition of MHV infection of LR7 cells: 900 nM
  spike-mediated cell-cell fusion (luciferase activity) (fold reduction at 10 µM): 1000

## GPIEGRDLSLDFEKLNVTLLDLTYEMNRIQDAIKKLNESYINLKE (modifications not checked) [HR2 peptide of the MHV-A59 spike protein (amino acid residues 1216-1254)]
[3]
  temperature of dissociation of the complex: 90 °C
[4]
  temperature of full dissociation of the complex: 90 °C
  temperature of partial dissociation of the complex: 80 °C
  temperature up to which the complex remained intact: 70 °C
